The values that follow come from patent US20180036395A1, “DOSAGE AND ADMINISTRATION OF MONOSPECIFIC AND BISPECIFIC ANTI-IGR-1R AND ANTI-ERBB3 ANTIBODIES” (Merrimack Pharmaceuticals, Inc., priority 2012, published 2018).

The subject of test [1] is Ewing's sarcoma or metastatic pancreatic cancer. Description: Treatment of patients with Ewing's sarcoma or metastatic pancreatic cancer. Format: in vivo, human. Particulars: irinotecan or nanoliposomal irinotecan + P4-G1-M1.3. Here is the method:
P4-G1-M1.3 is formulated in 20 mM histidine, 100 mM arginine-HCl, 3% sucrose, at pH 5.5 supplemented with 0.002-0.02% of Tween® 80 at concentration range 5-15 mg/mL. P4-G1-M1.3 is administered to patients at 6 mg/kg, 12 mg/kg, 20 mg/kg, 30 mg/kg, 40 mg/kg, 50 mg/kg or 60 mg/kg q7d, ql4d, q21d, or q28d with a loading dose of 12 mg/kg, 20 mg/kg, 40 mg/kg, 40 mg/kg or 60 mg/kg Everolimus is administered to patients at 2.5 mg, 5 mg, or 10 mg orally once a day or once every other day.
Patients with Ewing's sarcoma or metastatic pancreatic cancer are treated with a combination of an effective amount of irinotecan (Camptosar®) or nanoliposomal irinotecan and an effective amount of P4-G1-M1.3. P4-G1-M1.3 is formulated and administered as described above (e.g., Example 1). Nanoliposomal irinotecan is given i.v. at 80 mg/m^2 or 120 mg/m^2 q3w. Camptosar® is administered per manufacturer's directions.

Test [2] concerns KP4 cells. Description: In vitro signaling ELISA, KRAS mutant cells. The class given is cell-based, human. Particulars: combination 500 nM P4-G1-M1.3 + 250 nM GSK1120212, 24 hours, 10% serum, FIG. 3. Here is the method: Cells were treated with 500 nM P4-G1-M1.3, 250 nM GSK1120212 or the combination for 24 hours in 10% serum and ELISA assays were performed. The data was normalized to 10% serum without treatment.
The preclinical models to support this example are performed using BxPC-3 (KRAS wild-type) and KP4 (KRAS mutant) cell lines.
In general terms: In an ELISA, binding on a coated surface is turned into a signal by an enzyme label.

B1: P4-G1-M1.3: anti-IGF-1R+anti-ErbB3 polyvalent bispecific antibody, IgG1-(scFv)2 (SEQ ID NO:148 and SEQ ID NO:149) (protein)
chain 1: EVQLLQSGGGLVQPGGSLRLSCAASGFLFSSYPMHWVRQAPGKGLEWVGSISPSGGATPYADSVKGRFTISRDNSKNTLYLQMNSLRPEDTAVYYCAKDFYNILTGNAFDKWGQGTSVTVSSASTGGGGSGGGGSGGGGSGGGGSDIQLTQSPSSLSASLGDRVTITCRASQGISSYLAWYQQKPGKAPKLLIYAGSTPQSGVPSRFSGSGSGTEFTLTISSLQPEDSGTYYCQQYWTWPLTFGGGTKVEIKRT
chain 2: EVQLVESGGGLVQPGRSLRLSCAASGFTFDDYAMHWVRQAPGKGLEWVSGISWNSGSTGYADSVKGRFTISRDNAKNSLYLQMNSLRAEDTALYYCARDLGYNQWLEGFDYWGQGTLVTVSSASTGGGGSGGGGSGGGGSGGGGSSSELTQDPAVSVALGQTVRITCQGDSLRSYYASWYQQKPGQAPVLVIYGKNNRPSGIPDRFSGSSSGNTASLTITGAQAEDEADYYCMSRDHPGNQWVFGGGTKVTVLG
modifications: Synthetic polypeptide:Anti-IGF-1R scFvs M76; Synthetic polypeptide:Anti-ErbB3 scFvs P6L
On to B1, for which the treatment outcome in test [1] is recorded as “combinatorially enhanced outcome”. Besides, the “signaling (pAkt Ser473, pERK)” value in test [2] is listed as “inhibition of signaling”.
